These results are taken from CN112500487A (HUADAO SHANGHAI BIOMEDICAL CO LTD, dated 2021).

The Kd is the free concentration of one partner at which half of the binding sites on the other are occupied at equilibrium, for simple one-to-one binding. Low values mean tighter binding, high ones weaker binding. Broadly, the koff is the rate constant with which the complex falls apart. Low values mean a long-lived complex, high ones a short-lived complex. What is called kon is a measure of how fast the partners come together. A lower kon goes with slower complex formation.

This assay concerns the target T1, Human IL-3Rα/CD123蛋白 (human, UniProt P26951 19-305, limits assumed).
T1 construct: Soluble antigen in the mobile phase of the SPR run
T1 sequence (looked up): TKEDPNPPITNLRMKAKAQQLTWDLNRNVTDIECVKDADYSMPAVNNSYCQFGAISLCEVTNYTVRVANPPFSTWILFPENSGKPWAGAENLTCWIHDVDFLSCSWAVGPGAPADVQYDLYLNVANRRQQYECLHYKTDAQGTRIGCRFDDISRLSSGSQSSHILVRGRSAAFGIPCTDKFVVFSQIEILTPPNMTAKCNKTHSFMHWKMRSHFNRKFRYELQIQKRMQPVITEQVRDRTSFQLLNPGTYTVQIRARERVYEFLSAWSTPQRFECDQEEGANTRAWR
Put plainly: SPR (Biacore), antibody immobilised on chip, antigen in mobile phase.

B1: CD123-89 VHH-mIgG2a Fc抗体 (anti-CD123 VHH CD123-89 with mouse Fc tag) (Fc fusion)
chain: EVQLVESGGDSVQTGGSLRLSCLASGYIGSGYCLAWFRQAPGKERKKVANIVIGVGRPYYADSVKGRFTISQDNAKNTLYLQMNSLKPEDTAMYYCAASKFGSWSCGDYNYWGQGTQVTVSS
notes: Expressed in 293E cells from C-4pCP.Stuffer VHH-mCg2a-FC and purified on MabSelect SuRe; also called 抗CD123 VHH抗体CD123-89; 重组CD123-89抗体; not shown: mouse IgG2a Fc tag from vector C-4pCP.Stuffer VHH-mCg2a-FC
As to B1, binding was put at a Kd of 0.48 nM, the dissociation rate constant (koff) is 0.000174 s⁻¹ and the kon turned out to be 362000 M⁻¹ s⁻¹.
